# Data published in the domain aggregation screens of Martell et al. (2025).
# Assay: soluble fraction after stress (log2 fold change); higher = more stays soluble; pooled small domains, quantitative proteomics
# Settings: stress: 75 degC
# 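Note: 20 min heating vs room temperature control held 20 min.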
row,Sequence,soluble fraction (log2)
1,HMAFDESLVRSIQELLSELGYSPGKIDGLLGAKTVAAIKAFELEINKDQLTGEPSEELLIALQLAIRSSKM,-1.81
2,HMEQISIETRIEQLLARLSETEASGFEELFADTSSRADLITTFLALLEMIRLKLVRVFQDGSFGPIRIYKR,-0.572
3,HMPERMLEPLLNGNEIMKVTQLQPGPKVGLIRDALLQAQISGDVTDTESAKAFVQDYAKRNI,0.0453
4,HMGEEIRTWTDAQGRKIEARMSMLDGDQVLLELKDGRKIPYPLAKLSADDAHYARHFASASASD,-0.0336
5,HMKIAEALNLRGDADSYERQEAIWLLEHIVGMSALELKYRGEQDLTEDQLQQYRSGLQRLEQGEPLAYVIG,-0.965
6,HMAIEMSTITKRVTSTGEIRYRALLQIRREDVNYTESRTFSKKSLAEAWLKKREVELEANPELLHQ,-3.44
7,HMGNTTEVLVATQDVKANTKIKESMFTTERVDTASLPDNYLSADSAKDVVGYYTYIGFTKGSVISKSNIAT,0.625
8,HMSDTFENILQRLIKATGRKNASEMANALGLSPQSVYSAKTKGKIPPAWIFAAAERFNASADWIYFGY,-1.5
9,HMVPLSPRFFDIFRKRKDLTRQNVDVYFRDHPTEITAFERYIKGLVSQSYIPAERADALLLVASQYKAK,-1.58
10,HMRTTTGSEGMIGSIGKAKTDLAPDGKIFIHGELWDATSSSPVSAGQKIEVTQIEGLKLHVKPVL,0.7
11,HMEQIFTELIMDGRVLGENLHRMGVDETWLLRQLRQQGYHSAREVFLAVADANKQVAVYPVS,-0.381
12,HMNNLTEEAINHLVLEVKNVLLTDALFLGKATDSQLMLRIKETIDQRNGQYNIGMNDRERIARRVFARLR,-2.19
13,HMARKISVEALGKYFPNSPMLAAAVAVTGVMKKDEFIHEMRASYKHKFAKKPEVIDGNMKALTMTFEA,0.11
14,HMELVQIIGNNIRDLMTTRSVTITDLANYLNVSRQTLQNYLRGSNIIDSVKLVAVSDFFDVPVESLLQSK,-1.45
15,HMKKPANLISEDRMVEVLYDVIIINTAKGVNKQLLQNNINNPLNYIYRSHGIDSLQFAESNAYYTS,-0.563
16,HMEAMITEVKRINYGLISDISKSLDPFKSEGGHIIVDKRTNTFILTDLRANIEKMLWSIEIMD,-0.196
17,HMENLSFNINSEEEGQRIDKYLSVMIEGKSRSFVQGLIEEKKVKANSKVIKSNYKLKKGDFIEVEVPEPV,0.289
18,HMDFIEYIISEESKGLRADQAISMENDKFSRSLIQKWIKKGRVLVNGRKIKPKDIVNLNDKITINPEESIN,-0.36
19,HMQDLVAVPALTGLTENDAINKAKANNLIAVVSEYKTENSVEPGKVLEQDPESSTEVKKGTIIKLVVS,0.756
20,HMSVDDYLKFSGSGTYWNTQDRGKTYLVNGQQRPLRDKEYLPDVMHRHVIDFITKHRDRPFYIYYSM,0.173
21,HMAVDVNKATAAELDSIKGIGPAISAKILEEKKKGGNFKDWNDLVTRVSGVGEANAAKFSSEGLTVGGAS,0.0168
22,HMSSNLTVFTRNNAIIVNSDVVRKLNVFAVDGRLVRSVDLSVGENVINNISRGMYLIDKQKVVV,-2.77
23,HMYRPQQEFTMRDLFQNNLNGSESASVRRDALGAELGIGYGNAKRFLERLNHYGVSREEFTAALEKLESE,-0.522
24,HMKTKTFSPGEIVKIQTRDKSWQGTILESHDPEIILLKLTTGYNIGIRENEIINAKVIEKSKKDVKDAE,0.258
25,HMQVVVEKSKEKVIISGNQYYIHIVKKGETAFSIAKAYGITVDELVKNNPSAATVLKEGQALRIPVVE,0.0365
26,HMQNSYSVEDLALKAGLSVDTIRYYQGLDLIAPPQKNGRRAIYGDEHLSRLDEIKKLALEGFSLRQISLLK,-0.739

row,Sequence,soluble fraction (log2)
1,HMEPDEIVLDHRKRIENSDAIVLIAPIWNFRMPAILEGWIDKVLAPPWAFKFKKLFGNYGYPVGNLKG,0.0917
2,HMLTKSELVFDTLKKRIIDGELEPGTELVISRISEEFNVSTIPVREAIKTLASEGLVEMEPHKSAKVAE,-0.0052
3,HMSLHSITIPQEFIGAVIGPGGKVIQEIQKQTGTTITITEKDNKGYVDIFGEDKGALDSALARIKEIVAIP,0.289
4,HMTTGREGLIGAVGTVRQAIAPEGYVFVEGELWRAKSPAGPLEPGTTVRVIAIDGLTLTVMPAE,-0.965
5,HMGAYPENSLLKERGQSAVYLIQENRKRLFFNAEAFLINGYNWKDIQVVDDLSKILTGKVIYAK,-2.83
6,HMHTPSGALLSAIEKEWGSFDNFKKEFTTAATSLFGSGWVWLAKDKKGKLYILSENNAGNPITKGYTPILG,-0.359
7,HMLSLGIMEADMLKTGKHTISGISKATPEQRQKIDSDIEELKKKYPEKNITSKVENDNLIVESGVTAP,0.029
8,HMYAMTAEDWIVSGNRKYINDDLQGAIADYTKAIEIDPNYAAIYLVRGKAKYELKNYQGAIEDYTKAIE,-1.29
9,HMKVLNVLESEIVRLFKQGQQKDNIRDNIYKTHGQHYNNKKSFNVVFGRKWNSLLEQGFLES,-1.23
10,HMPPSRFNELSMWFQEQLTEAGLKVDSGALKMLIEWLGQDQARLPSIIEVLVSTYGTKKKLTVDEIEPFL,-0.384
11,HMGKEDLTAAIKKMTLNDKLDIHKIVANFQTNDSEEVITAVKWLMENNYLLKIKNNYTWNTKEK,-0.901
12,HMKNKFYEEFSDYIFKHTGIHYAEANYYQLDARINKLMKFLETSDENDVLKAIQGGAVKDQRVHQMIVDLA,-2.16
13,HMGLPLETVVTHATKLEIVRDGRVSGSIGLSAGVKVDVIALEGDNLQVRYRSLSGRVPVAHTGLAALA,-1.58
14,HMNSVAASLREISIKVSGTEDADKVSRLQELSQMPKLDASGIAEANTLLEQLRAKYGDLGLSVDTARGRIV,0.494
15,HMRSEILNLLREKSPQPVSGQDLANHFGITRTAVWKHIQSLKKMGYGIEAYTKKGYVLVSVPN,-0.159
16,HMTGINMSYEEYKAMADIIVPLIKAGHSPYHIVTNHPELNISEKTLYNYIENGIFREFGLLDINL,-1.59
17,HMGNVRSWKGWTSAGGTRVQMRQGDSINSMARRYGVPIQAIVAVNGIDDPAKVQPGQSVIIPTYVY,-0.29
18,HMGIKLSDRQMQIVEIVKSQQPITSEQVAERLNLTRAALRSDLSILTMAGILEARPKVGYSLTGR,-1.97
19,HMTARPTLEKLKYMIHEAGITENSLKVIVATKGHYGLDADISTYSDDFITRWIIPNWTKIVQTISNNK,-1.81
20,HMNDVLVGAIPESASGSRLDKVMPSVFPPYSRSQLQVWLKQGRILMGNGIPSPRLIVSGGEVLSLVVPELP,-1.02
21,HMAGDDEIEKIAQDILAAWPDKVAAYQAGNKGLMGLFMGELMKKSQGKANPKVASGIIQKLLD,0.0201
22,HMEPVQFIQFKIPDGHPWSGQLLREVRLPPGTLVVLLKHDGKNIIPNGETPLLAGDSVILSAASPT,-0.567
23,HMGQKDYKTRLQEYFAKQGLKVNYEDTSHGPDHNKNFSTDVFLDGKIIGSGIGKSKKSSQQSAAKDALNIL,0.473
24,HMQGYELKMYVTPDTKYSVAVYDAKNEMVSYTMGFSAKAPFGQEGEVLETVKLEFDKLAVGNYELKYWI,0.258
25,HMAAVPQPQRSETIVYIGGRKFYVHTVQAGETLYSIARLYGVSEQTLVANNPTMADVVKADQNVRIPVPA,-1.96
26,HMNADAPWSPFSPGFTGPMNRPVIGLVTKADLANPQRISLVESWLVQAGAQKVFVTSALENTGVDEMFIFL,-0.152

row,Sequence,soluble fraction (log2)
1,HMNTKDRIKQLAAQRKITIAELERKLHIANGTIGKWDKQNPSIEPLKKLADYFGVTTDYLLGRT,-0.381
2,HMDLRAPKPIKEMGEEYIKLYQYLRKGESENIVMSKMNISLDDYDYMRSEIEDKLSLYNMLDLLRKP,-0.978
3,HMYKIDFAEGDRVIIKGGAFSGLRATVVSLHPEKGMAKIKVYMFGDRETLVDIEVSQLEKDK,-0.785
4,HMNQSKYQTIADELKSKILSGEYPENTTIPPELQLQKDYQVSRHTIRQAIALLANEGFLRKEKGSGTYVDV,-0.147
5,HMGKRGKEMQTAVLAILRASDRPYSAYELLESLKDIYPKIAPPTVYRALAALTQRGQIRRLESLNAFI,-0.221
6,HMAGAITEREVEVLELLSRGLGNKEIAKELFVSEATVKSHLSHIYTKLAVDTRAGAVAAAIERRIIRAWR,-2.99
7,HMAPSLSEYAYEEIKHAIERGVYPPGAKLITQEIADRLGISRTPVVAAVNRLTAEGYADAVPQHGIFVK,-0.073
8,HMLHNEFINDRIQSAINNLSEHFKIVIILRDIQELSYEEISNIVEVPLGTIKSRINRARIQLQAELLDL,0.215
9,HMYPATGTVVTAGGHLNMRSEPDRSGAILARIPNGTALTLTGKNGDWYAATYAGRSGYVSAQYISLS,-0.421
10,HMTGLFSPTEQTRHSKTGATLYSVKLAERIERNAFQSLKKRAKEHDGYYSSFTRSFLFDTPEDAEAFRGT,-0.371
11,HMVEMIGLQMVGKSGIASTVLRPSGKVRIDGVVYDAVSEDGFIEKGQAVKVLRYETGQVYVEKL,-0.727
12,HMRQSIHTALQLLTPREEEVLNLLVSGKSNKQVAEHFSLSSKTIERHRSSVMRKLDASSFAQLVRIAALR,-3.27
13,HMITKAIELAEEAEKETVWLGVWEHNHPAQKFYQSLGFVKTDEHDFYMGNERHTDYTMTKQLK,-0.344
14,HMSVETSDLLPLIEQVLSLNPDKVKEYQNGKKGLLGFFMGQIKQTAGVAIDVGTLKPLLEDALHKDL,-0.861
15,HMRDKTMLGNVIRTRRKKMNLTLEELSKQVGITSGGLSQIERGLVDPSLSVLRRISRALNLPMNVMFSE,-1.32
16,HMDKQEKIHKKKIIILEALKRLLQNDVYSRITVQAVADEAGFSKGGLLHYFPTKEEMYIEFMEY,-0.103
17,HMRISKRQLILESAAAIINEKGADYLTLDAVAQRAGISKGGLFYHFKSKDELIKELVNYANN,-1.56
18,HMDVTDRLARRLQGLRSAQGLSLDALAARSGVSRSNISLIERGQSSPTATVLDKLSAALGVTLAALFEEP,-1.04
19,HMDLDIGSVLQASRGEKKISLRQLAERTGLTASMLSQIERNLVNPSINTLKVIAAALEIPMYKFFMG,-1.17
20,HMSERVVVPDLTGKDLVAAQSELREISLAGREEGPGDKVRRQFPVAGVKVPKDTVVILYTED,0.0278
21,HMEGRTVMATTAVNVRSGPGTSYKILGVLYPGHTAQQIGNTRYGWAQVTWKGHTAYIAARYLRDS,-2.71
22,HMTASSYMGMQLGRLEELLKKEVLSLSEKTELKDLISDFDKIPEVVSPKIIGRYLQLKNQHFAKINA,-0.437
23,HMHGERVVTAGQTVRVVFTSNGLQVSSEGKALAAGAVGDDIQVRAASGKVIRGTVTGPGVVQV,0.233
24,HMDEETVALQKAIHSLPPKQQAVFNMRYYDEMSFREIADANETTESSAKANYHFAKAKIIEQMKR,0.113
25,HMNLQGIISQKAIVTQTIEPYETGVAKLNGEEWTAMSKDETRIEAGKLVEVVAIEGVKLIVKEVS,-0.311
